We go through five molecules from US20160333092A1 (ORDER MADE MEDICAL RESEARCH, published 2016).

The target of assay [1] is T1, partial protein of the extracellular region of SLC6A6 (amino acid residues 143 to 216, E. coli recombinant) (human, UniProt P31641 143-216).
T1 construct: also called SLC6A6 partial protein; recombinant protein
T1 sequence: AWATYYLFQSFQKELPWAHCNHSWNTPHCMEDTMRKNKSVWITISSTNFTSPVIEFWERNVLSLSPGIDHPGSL
Put plainly: ELISA on coated recombinant SLC6A6 partial protein (residues 143-216), HRP-labelled secondary antibody. As to the method:
The recombinant protein obtained in (4) above (10 μg/ml) was dispensed in 100 μL volumes into MaxiSorp 96-well plates (Nunc) and adsorbed onto the plates at room temperature for 1 hour. After adsorption, each well was washed with TBS-T (TBS-T (25 mM Tris, 150 mM NaCl, 0.05% (v/v) Tween 20, pH 7.4) and charged with skimmed milk (GIBCO), which had been diluted to 5% with TBS-T, to conduct blocking for 30 minutes at room temperature. After each well was washed three times with 200 μL of TBS-T, mouse plasma samples collected from the tail vein were each diluted 1/2000-fold with TBS-T and added to the ELISA plates in a volume of 100 μL per well, followed by reaction at room temperature for 1 hour. Each well was washed three times with 200 μL of TBS-T.
The thus obtained monoclonal antibody-producing hybridoma cells were cultured in ten 10 cm dishes to reach 90% confluency and then cultured for 10 days in a 1:1 mixture of HT medium (Invitrogen) and EX CELL Sp2/0 (Nichirei Bioscience Inc., Japan). The culture supernatants were collected and purified with a Protein G column. The Protein G column (GE Healthcare) was used in a volume of 0.5 mL relative to 100 mL of the culture supernatant. The cultured solutions were each passed at a flow rate of 1 to 3 ml/min through the Protein G column which had been equilibrated with PBS(−), followed by washing with 6 mL of washing buffer (25 mM Tris-HCl (pH 7.4), 140 mM NaCl, 10 mM KCl). Then, antibody proteins were eluted with 1 mL of elution buffer (0.1 M glycine-HCl (pH 2.5) or 0.1 M glycine-HCl (pH 3.0)) and neutralized with 0.5 M Tris-HCl (pH 7.4) to be within pH 7.0 to 7.4. The antibodies were concentrated with Amicon Ultra 30 (Millipore) and the buffer was replaced with PBS(−).
On the technique in general: An ELISA detects its analyte on a solid surface through an enzyme-linked reagent.

In assay [2] the target is T2, human SLC6A6 (solute carrier family 6 (neurotransmitter transporter, taurine), member 6) (human, UniProt P31641 1-620).
T2 construct: also called native SLC6A6; SLC6A6 on the cell membrane
T2 sequence: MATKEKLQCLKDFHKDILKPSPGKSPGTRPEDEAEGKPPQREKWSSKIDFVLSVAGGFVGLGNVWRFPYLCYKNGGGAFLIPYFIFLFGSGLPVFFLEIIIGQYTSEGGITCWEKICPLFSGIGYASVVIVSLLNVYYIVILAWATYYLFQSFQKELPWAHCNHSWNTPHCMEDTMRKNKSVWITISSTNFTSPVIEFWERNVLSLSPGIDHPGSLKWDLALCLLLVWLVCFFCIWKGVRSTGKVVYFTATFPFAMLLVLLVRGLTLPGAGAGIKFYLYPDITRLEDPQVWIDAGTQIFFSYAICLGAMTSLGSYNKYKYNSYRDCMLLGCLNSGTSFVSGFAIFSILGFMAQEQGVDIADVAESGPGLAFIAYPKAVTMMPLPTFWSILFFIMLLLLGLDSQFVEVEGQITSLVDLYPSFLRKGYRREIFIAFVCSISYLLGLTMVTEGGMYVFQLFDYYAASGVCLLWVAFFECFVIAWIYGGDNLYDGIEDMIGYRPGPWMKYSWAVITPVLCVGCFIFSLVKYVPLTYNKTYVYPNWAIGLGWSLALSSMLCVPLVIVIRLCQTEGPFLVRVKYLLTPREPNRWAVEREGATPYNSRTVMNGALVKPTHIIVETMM
Nature of the assay: immunocytological staining of formalin-fixed HT-29 and LoVo cells, antibody 10 ug/mL; compared with 4B9b and 5H12d. As for the experimental part: (§1) Moreover, as controls for comparison purposes, the anti-SLC6A6 antibodies “4B9b” and “5H12d” disclosed in WO2012/029990 were also analyzed in the same manner. Hereinafter, antibodies produced by hybridoma cells are also represented by their respective clone numbers.
(§2) HT-29 and LoVo cells were cultured to reach 80% confluency and then seeded onto cover slips coated with Cellmatrix Type I-A (Nitta Gelatin Inc., Japan). After culture for 2 days, the cells were fixed with 10% neutral buffered formalin (WAKO). After being treated with 0.3% (v/v) aqueous hydrogen peroxide for 20 minutes, the cover slips were washed three times with TBST and treated with TBST containing 5% (w/v) skimmed milk, followed by addition of the antibodies purified in (7) above at a concentration of 10 μg/mL and reaction at 4° C. for 16 hours. […] After washing three times with TBST, the cover slips were sealed with Mounting Medium (Vector Shield).

Assay [3] addresses T2, human SLC6A6 (solute carrier family 6 …). Nature of the assay: binding activity on HCT15 and HT-29 cells, antibody 10 ug/mL, anti-human IgG-HRP secondary antibody. As for the experimental part:
In this case, the antibody concentration was set to 10 μg/mL.

For assay [4] the target is unchanged. Nature of the assay: immunocytological staining of formalin-fixed HT-29 and LoVo cells, antibody 10 ug/mL. As for the experimental part:
as §1, §2

B1: monoclonal antibody produced from mouse-mouse hybridoma 303 (antibody, V domains shown)
VH: VQLQQPGAEFVKPGTSVKLSCKASGYNFTRYWINWVKLRPGQGLEWIGNIYPATNGINYNEKFKSKATLTVDTFSSTAYMQLSSLASEDSGLYYCARCKTMLSRCAWFPYWGQGTLVTVSA
VL: DIQMTQTTSSLSASLGDRVTINCRASQDISNYLNWYQQKPDGTVKLLIYDTSRLHSRVPSRFSGSGSGTDYSLTISNLEQEDIATYFCQQGNMLPWTFGGGTKLEIK
Turning to B1, the binding result in assay [1] and in assay [2] was “binds” throughout.

B2: human-mouse chimeric 205 antibody (antibody, human IgG1, kappa, V domains shown)
VH: QVKLQQSGPELVKPGASVKMSCKASGYTFTSYVMHWVKQKPGQGLEWIGYINPYNDGTKYNEKFKGKATLTSDKSSSTAYMELSSLTSEDSAVYYCARRKAWFAYWGQGTLVTVSA
VL: DIQMTQSPASQSASLGESVTITCLASQTIGTWLAWYQQKPGKSPQLLIYAATSLADGVPSRFSGSGSGTKFSFKISSLQAEDFVSYYCQQLYSTPLTFGGGTKLEIKR
notes: Human IgG1 / human kappa constant regions
Turning to B2, the binding result in assay [3] is “binds”.

B3: monoclonal antibody produced from mouse-mouse hybridoma 422 (antibody, V domains shown)
VH: VQLQQSGPEVVKPGPSLRMSCKASGYFFTGNSMNWVKKTHGRSLEWIGLIDLSNGETRFNQKFKGKATLTVDKSSGTAYMELLNLTSEDSAVYYCASRSAMIMPCFSHWGQGTLVTVSA
VL: DIVMTQSHNFMSTSIGDRVNITCKASQDVATAVAWFQQKPGQSPKLLIYWTSTRHTGVPDRFTGSGYGTDFTLTISHVQSEDLADYFCQQYDTYPYTFGGGTKLEIK
notes: also called 422 antibody; antibody clone 422
In the case of B3, the binding result in assay [4] and in assay [1] was “binds” each time.

B4: monoclonal antibody produced from mouse-mouse hybridoma 419 (antibody, V domains shown)
VH: IQLQQSGPELVKPGASVKVSCKAFGYAFTRHNMYWVKQRHGKCLEWIGYIDPFNGGTSYNQKFKGKATLTVDKSSSTAYMHLNSLTSEDSAVYYCARVYGNYAWFAYWGQGTLVTVSA
VL: DIVMTQSHKFMSTSVGDRVSITCKASQDVSTAVAWYQQIPGQSPKLLIYSSSYRYTGVPDRFTGSGSGTDFTFTISSVQAEDLAVYYCQQHYNTPWTFGGGTKLEIK
As for B4, the binding result in assay [1] and in assay [2] was “binds” each time.

B5: monoclonal antibody produced from mouse-mouse hybridoma 205 (antibody, V domains shown)
VH: VKLQQSGPELVKPGASVKMSCKASGYTFTSYVMHWVKQKPGQGLEWIGYINPYNDGTKYNEKFKGKATLTSDKSSSTAYMELSSLTSEDSAVYYCARRKAWFAYWGQGTLVTVSA
VL: DIQMTQSPASQSASLGESVTITCLASQTIGTWLAWYQQKPGKSPQLLIYAATSLADGVPSRFSGSGSGTKFSFKISSLQAEDFVSYYCQQLYSTPLTFGGGTKLEIK
With B5, the binding result in assay [1] and in assay [2] was “binds” each time.
